Laboratory results reported in US20250235545A1, “POLYPEPTIDE CONJUGATE AND USE THEREOF” (SHANGHAI CHIXI BIOMEDICAL TECHNOLOGY CO., LTD, priority 2024, published 2025).
≈ marks a conversion by molar mass, not a printed value. Read-outs that look alike come from different tables or passages of the source. Where a SMILES comes first, the peptide text is derived from it. The star is where a group is joined. NEt(2-(20S-CPT-7-yl)ethyl) = CCN(CCc1c2c(nc3ccccc13)-c1cc3c(c(=O)n1C2)COC(=O)[C@]3(O)CC)*; X1 = CC[C@@]1(O)C(=O)OCc2c1cc1n(c2=O)Cc2c-1nc1ccccc1c2CCN(C1CCC1)*; X3 = CC[C@@]1(O)C(=O)OCc2c1cc1n(c2=O)Cc2c-1nc1ccccc1c2CCN(C1CC1)*; Propanoyl(3-maleimido) = O=C1C=CC(=O)N1CCC(=O)*; PEG6 = NCCOCCOCCOCCOCCOCCOCCC(=O)O

Experiments:
[1] = MTD determination in mice (Examples 27, 36, 44); format: in vivo; details: female, mouse, in vivo; mice, monitored for 14 d; Table 9
Source text: Test animals: 6-8 weeks old mice, all female; mice were grouped randomly, with six mice in each group, administered with drugs at different concentration gradients separately and monitored for 14 d. A mouse was euthanized at a loss of 20% of its initial weight and deemed to have died of poisoning.

[2] = test system: sarcoma SJSA-1 tumor model; assay: Efficacy in animal model of sarcoma SJSA-1, 30 mg/kg once a week for two weeks (Example 40); format: in vivo, BALB/c mice; details: 30 mg/kg once a week for two weeks
Method: Test objective: To further compare the antitumor efficacy of different polypeptide Linkers in an animal tumor model of sarcoma SJSA-1.
(§1) Test drug: Polypeptide conjugate and normal saline control group.
The control group was administered normal saline. Administration was performed once a week for two weeks.

[3] = Tumor homogenate activation efficiency, ovarian cancer tissue (Examples 28, 37); format: in vitro ADME; details: pH 5.0, 37° C., 2 h; Table 10
How it was run: (§2)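 1 mg/ml conjugate, pH 5.0 (50 mM MES, 250 mM NaCl); + 100 μg tissue homogenate; 37° C, 2 h. HPLC, release = Belotecan area / total Belotecan-containing area.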

[4] = test system: A2780 ovarian cancer tumor model; assay: Efficacy in animal model of A2780 ovarian cancer, 30 mg/kg once a week for two weeks (Example 41); format: in vivo, BALB/c mice; details: Day 14
Method: Test objective: To further compare the antitumor efficacy of different polypeptide Linkers in an animal tumor model of A2780 ovarian cancer.
as §1
8×10^6 corresponding cells were injected into right axillas of nude mice subcutaneously. […] The negative control group was administered normal saline. Administration was performed once a week for two weeks.

[5] = test system: sarcoma SJSA-1 tumor model; details: Table 7
How it was run: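 SJSA-1 cells (2×10^7, DMEM/10% FBS, under 15 passages) implanted subcutaneously in right chest of female BALB/c nude mice, 6-8 weeks old. At ≥100 mm^3, randomized three per group; dosing once weekly for three weeks, saline as control, day 1 = first treatment.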

[6] = Tumor homogenate activation efficiency, non-small cell lung cancer tissue (Examples 28, 37); format: in vitro ADME; details: pH 5.0, 37° C., 2 h; Table 10
How it was run: as §2

[7] = Homogenate activation efficiency, heart tissue (Examples 28, 37); format: in vitro ADME; details: pH 5.0, 37° C., 2 h; Table 10
[8] = Tumor homogenate activation efficiency, colorectal cancer tissue (Example 37); format: in vitro ADME; details: pH 5.0, 37° C., 2 h; Table 10
Method: Buffer preparation: 50 mM PH buffer (MES), 250 mM NaCl, pH adjusted to 5.0 with 0.5 M of sodium hydroxide.
The polypeptide conjugate was prepared into a 1 mg/ml solution with pH 5.0 buffer, 100 μg of tumor tissue homogenate was added, (the tumor tissue homogenate was the homogenate of tumor tissues prepared with a Jingxin F6/10 handheld homogenizer), and the solution was placed at 37° C. for 2 h. The tumor tissue homogenate could effectively activate the polypeptide conjugate and release Belotecan, and the activation efficiencies of the drugs in tumor tissues were compared by HPLC allowing determination of a decrease in the compounds and an increase in Belotecan:
Release percentage=peak area of Belotecan/total peak area of Belotecan and all other Belotecan-containing compounds

[9] = test system: colo320 colorectal cancer tumor model
How it was run: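 Female BALB/c nude mice, 6–8 weeks old, received 7.5×10^6 colo320 cells subcutaneously in the right chest. Once tumors reached at least 120 mm^3 they were randomized three per group. Treatment with test agents or saline control was given once weekly for four weeks.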

[10] = Tumor homogenate activation efficiency, sarcoma tissue (Examples 28, 37); format: in vitro ADME; details: pH 5.0, 37° C., 2 h; Table 10
How it was run: as §2

[11] = test system: A549 (non-small cell lung cancer); assay: cells; format: cell-based; details: CCK8, 48 h; Table 6
How it was run: (§3)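 Tumour cells grow for 48 h with the compounds at several concentrations (5,000 cells/well, triplicate, 37° C, 5% CO2), in serum-supplemented RPMI1640 or high-glucose DMEM. Viability is measured with CCK8 reagent at 450 nm, and IC50 is calculated.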

A2780 (ovarian cancer) = assay: cells; format: cell-based; details: CCK8, 48 h; Table 6
How it was run: as §3

[12] = test system: SKBR3 (breast cancer tissue); assay: cells; format: cell-based; details: CCK8, 48 h; Table 6
How it was run: as §3

SJSA-1 (sarcoma tissue) = assay: cells; format: cell-based; details: CCK8, 48 h; Table 6
How it was run: as §3

[13] = test system: colo320 (colorectal cancer tissue); assay: cells; format: cell-based; details: CCK8, 48 h; Table 6
How it was run: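 Colo320 cells, 5,000 per well, exposed to drug concentration series for 48 h at 37 °C, 5% CO2 (0.1% DMSO controls). Viability by CCK8, absorbance at 450 nm after about 2 h. Survival rates and IC50 calculated.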

[14] = Tumor homogenate activation efficiency, breast cancer tissue (Examples 28, 37); format: in vitro ADME; details: pH 5.0, 37° C., 2 h; Table 10
How it was run: as §2

[15] = 15 mg/kg once a week for three weeks
[16] = 45 mg/kg once a week for three weeks
[17] = 15 mg/kg once a week for four weeks, Table 8
[18] = 45 mg/kg once a week for four weeks, Table 8
[19] = Table 14 (Example 43), dose 45 mg/kg, once a week for four weeks, BALB/c mice

Compound | MTD at 14 d [1] | Mouse weight (%) on Day 14 ([2]; Day 14) | Percentage of release efficiency (%) Ovarian cancer tissue (A2780) [3] | Mouse weight (%) on Day 14 [4] | Mouse weight (%) [5, 15] | Mouse weight (%) [5, 16] | Percentage of release efficiency (%) Non-small cell lung cancer tissue (A549) [6] | Percentage of release efficiency (%) Heart tissue [7] | Percentage of release efficiency (%) Colorectal cancer tissue (colo320) [8] | Mouse weight (%) [9, 17] | Mouse weight (%) [9, 18] | Percentage of release efficiency (%) Sarcoma tissue (SJSA1) [10] | IC50 Non-small cell lung cancer tissue (A549) [11] | IC50 Ovarian cancer tissue (A2780) (A2780 (ovarian cancer)) | IC50 Breast cancer tissue (SKBR3) [12] | IC50 Sarcoma tissue (SJSA-1) (SJSA-1 (sarcoma tissue)) | IC50 Colorectal cancer tissue (colo320) [13] | Percentage of release efficiency (%) Breast cancer tissue (SKBR3) [14] | further results
CC[C@@]1(O)C(=O)OCc2c1cc1n(c2=O)Cc2c-1nc1ccccc1c2CCN(C(=O)[C@H](CC(C)C)NC(=O)[C@H](CC(N)=O)NC(=O)[C@H](C)NC(=O)[C@H](C)NC(=O)CCOCCOCCOCCOCCOCCOCCNC(=O)CCN1C(=O)C=CC1=O)C1CCC1 [MI-6PEG-AANL-D7] ({Propanoyl(3-maleimido)-PEG6}-AANL-X1) | 150 mg/kg | −3.3% | 66.7% | +4.8% | +12% | +19% | 74.6% | 2.2% | 76.4% | +29% | +9% | 71.7% | 1.81 µg/mL (≈ 1.39 µM) | 0.91 µg/mL (≈ 0.699 µM) | 2.01 µg/mL (≈ 1.54 µM) | 1.33 µg/mL (≈ 1.02 µM) | 2.48 µg/mL (≈ 1.91 µM) | 72.3% | 
CCN(CCc1c2c(nc3ccccc13)-c1cc3c(c(=O)n1C2)COC(=O)[C@]3(O)CC)C(=O)[C@H](CC(C)C)NC(=O)[C@H](CC(N)=O)NC(=O)[C@H](C)NC(=O)[C@H](C)NC(=O)CCOCCOCCOCCOCCOCCOCCNC(=O)CCN1C(=O)C=CC1=O [MI-6PEG-AANL-D2] ({Propanoyl(3-maleimido)-PEG6}-AANL-{NEt(2-(20S-CPT-7-yl)ethyl)}) | 200 mg/kg | +1.9% | 71.3% |  | +41% | +24% | 73.6% | 0.9% | 65% |  | +19% | 67.1% | 2.57 µg/mL (≈ 2.02 µM) | 1.31 µg/mL (≈ 1.03 µM) | 3.28 µg/mL (≈ 2.57 µM) | 1.58 µg/mL (≈ 1.24 µM) | 4.65 µg/mL (≈ 3.65 µM) | 73.5% | SJSA-1 (sarcoma tissue) mean tumor volume (mm^3) Day 1 ([2]; Day 1): 136.59 mm^3; SJSA-1 (sarcoma tissue) mean tumor volume (mm^3) Day 4 ([2]; Day 4): 465.17 mm^3; SJSA-1 (sarcoma tissue) mean tumor volume (mm^3) Day 7 ([2]; Day 7): 891.36 mm^3; SJSA-1 (sarcoma tissue) mean tumor volume (mm^3) Day 10 ([2]; Day 10): 1320.55 mm^3; SJSA-1 (sarcoma tissue) growth rate (%) on Day 14 ([2]; Day 14): 1623.94%; SJSA-1 (sarcoma tissue) mean tumor volume (mm^3) Day 14 ([2]; Day 14): 2218.14 mm^3; SJSA-1 (sarcoma tissue) growth rate (%) [5, 15]: 1316.56%; SJSA-1 (sarcoma tissue) mean tumor volume (mm^3) [5, 15]: 1645.7 mm^3; SJSA-1 (sarcoma tissue) growth rate (%) [5, 16]: 964.08%; SJSA-1 (sarcoma tissue) mean tumor volume (mm^3) [5, 16]: 1213.3 mm^3; colo320 (colorectal cancer cell) growth rate (%) [9, 18]: 760.87%; colo320 (colorectal cancer cell) mean tumor volume (mm^3) [9, 18]: 894.4 mm^3; Mouse weight (%) [9, 19]: +19%; colo320 (colorectal cancer cell) growth rate (%) [9, 19]: 760.87%; colo320 (colorectal cancer cell) mean tumor volume (mm^3) [9, 19]: 894.4 mm^3
CC[C@@]1(O)C(=O)OCc2c1cc1n(c2=O)Cc2c-1nc1ccccc1c2CCN(C(=O)[C@H](CC(C)C)NC(=O)[C@H](CC(N)=O)NC(=O)[C@H](C)NC(=O)[C@H](C)NC(=O)CCOCCOCCOCCOCCOCCOCCNC(=O)CCN1C(=O)C=CC1=O)C1CC1 [MI-6PEG-AANL-D6] ({Propanoyl(3-maleimido)-PEG6}-AANL-X3) | 120 mg/kg | −2.5% | 76.2% | +5.2% | +19% | +17% | 66.1% | 3% | 73.5% | +25% | +5% | 69.5% | 1.38 µg/mL (≈ 1.07 µM) | 0.70 µg/mL (≈ 0.544 µM) | 2.02 µg/mL (≈ 1.57 µM) | 0.51 µg/mL (≈ 0.396 µM) | 1.87 µg/mL (≈ 1.45 µM) | 66.9% | 
